These results are taken from US8227212B2, “Cell that expresses a sulfatase and a formylglycine generating enzyme” (Shire Human Genetic Therapies, Inc., priority 2003, dated 2012).

Substrate in the series: CSCC[C@H](NC(C)=O)C(=O)N[C@H](C(=O)N[C@@H](CC(=O)O)C(=O)N[C@@H](Cc1ccccc1)C(=O)N[C@@H](Cc1ccc(O)cc1)C(=O)N[C@H](C(=O)N1CCC[C@H]1C(=O)N[C@H](C(=O)N[C@@H](CO)C(=O)N[C@@H](CC(C)C)C(=O)N[C@@H](CS)C(=O)N[C@H](C(=O)N1CCC[C@H]1C(=O)N[C@@H](CO)C(=O)N[C@@H](CCCNC(=N)N)C(=O)N[C@@H](C)C(=O)N[C@@H](C)C(=O)N[C@@H](CC(C)C)C(=O)N[C@@H](CC(C)C)C(=O)N[C@H](C(=O)NCC(=O)N[C@@H](CCCNC(=N)N)C(=O)N[C@@H](CO)C(N)=O)[C@@H](C)O)[C@@H](C)O)C(C)C)C(C)C)[C@@H](C)O
The series is described as follows: In vitro assay for FGE with peptide P23 as substrate (MALDI-TOF). The format is biochemical, bovine. Particulars: other: standard conditions; pH 9.0; 37.0 °C. On the procedure:
For monitoring the activity of FGE, the N-acetylated and C-amidated 23mer peptide P23 ([…]) (SEQ ID NO:33) was used as substrate. The conversion of the Cysteine residue in position 11 to FGly was monitored by MALDI-TOF mass spectrometry. A 6 μM stock solution of P23 in 30% acetonitrile and 0.1% trifluoroacetic acid (TFA) was prepared. Under standard conditions 6 pmol of P23 were incubated at 37° C. with up to 10 μl enzyme in a final volume of 30 μl 50 mM Tris/HCl, pH 9.0, containing 67 mM NaCl, 15 μM CaCl2, 2 mM DTT, and 0.33 mg/ml bovine serum albumin. To stop the enzyme reaction 1.5 μl 10% TFA were added. […] Activity (pmol product/h) was calculated on the basis of the peak height of the product divided by the sum of the peak heights of P23 and the product.
We had developed an assay for determining FGE activity in microsome extracts using in vitro synthesized [^35S] […] The quantitation of the product included tryptic digestion, separation of the peptides by RP-HPLC and identification and quantitation of the [^35S]-labeled FGly containing tryptic peptide by a combination of chemical derivatization to hydrazones, RP-HPLC separation and liquid scintillation counting (Fey et al., J. Biol. Chem., 2001, 276:47021-47028). […] The cysteine and the FGly containing forms of P23 could be identified and quantified by matrix-assisted laser desorption/ionisation time of flight (MALDI-TOF) mass spectrometry. […]

B1: FGE (Bos taurus) (protein)
chain: GEEAGPEAGAPSLVGSCGCGNPQRPGAQGSSAAAHRYSREANAPGSVPGGRPSPPTKMVPIPAGVFTMGTDDPQIKQDGEAPARRVAIDAFYMDAYEVSNAEFEKFVNSTGYLTEAEKFGDSFVFEGMLSEQVKSDIQQAVAAAPWWLPVKGANWRHPEGPDSTVLHRPDHPVLHVSWNDAVAYCTWAGKRLPTEAEWEYSCRGGLQNRLFPWGNKLQPKGQHYANIWQGEFPVTNTGEDGFRGTAPVDAFPPNGYGLYNIVGNAWEWTSDWWTVHHSAEETINPKGPPSGKDRVKKGGSYMCHKSYCYRYRCAARSQNTPDSSASNLGFRCAADHLPTTG
notes: the soluble fraction (reticuloplasm) of bovine testis microsomes served as the starting material; from tissue; host or cells: bovine testis rough microsomes, reticuloplasm
By Km is commonly meant the concentration of substrate that gives half-maximal velocity. Take B1: the Km is 0.013 µM.
